Article PMC6756063, “TRiC/CCT chaperonins are essential for organ growth by interacting with insulin/TOR signaling in Drosophila” (Oncogene, 2019)

Biological target: T1, GST-CCT4 (Drosophila, UniProt Q9VK69 1-533)
T1 construct: CCT4, Drosophila; source: E. coli BL21 (IPTG-inducible), purified using a standard method
T1 sequence (looked up): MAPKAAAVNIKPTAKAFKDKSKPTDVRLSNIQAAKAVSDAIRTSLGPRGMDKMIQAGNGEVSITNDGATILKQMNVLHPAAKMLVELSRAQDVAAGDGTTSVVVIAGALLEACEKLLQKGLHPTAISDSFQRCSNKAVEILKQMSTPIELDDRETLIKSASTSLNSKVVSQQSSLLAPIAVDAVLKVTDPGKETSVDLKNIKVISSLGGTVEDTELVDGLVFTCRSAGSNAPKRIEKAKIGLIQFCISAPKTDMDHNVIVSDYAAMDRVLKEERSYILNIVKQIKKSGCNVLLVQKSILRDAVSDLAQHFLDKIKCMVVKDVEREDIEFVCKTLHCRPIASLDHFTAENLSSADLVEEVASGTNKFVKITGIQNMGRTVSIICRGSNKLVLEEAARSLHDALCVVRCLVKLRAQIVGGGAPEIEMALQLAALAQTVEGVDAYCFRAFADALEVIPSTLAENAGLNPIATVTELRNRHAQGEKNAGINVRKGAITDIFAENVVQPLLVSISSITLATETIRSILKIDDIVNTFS
Assay: pull-down; MBP-pulldown of MBP-tagged bait with GST-CCT4; pulldown buffer 20 mM Tris pH 7.5, 150 mM NaCl, 0.5 mM EDTA, 10% glycerol, 0.1% Triton X-100, 1 mM DTT; blots with anti-MBP and anti-GST
Conditions: both partners purified

binding result: binds
B1: MBP-Rheb (natural protein, Drosophila, UniProt Q9VND8 1-182, looked up)
chain: MPTKERHIAMMGYRSVGKSSLCIQFVEGQFVDSYDPTIENTFTKIERVKSQDYIVKLIDTAGQDEYSIFPVQYSMDYHGYVLVYSITSQKSFEVVKIIYEKLLDVMGKKYVPVVLVGNKIDLHQERTVSTEEGKKLAESWRAAFLETSAKQNESVGDIFHQLLILIENENGNPQEKSGCLVS
notes: also called full-length Rheb; source: E. coli BL21 (IPTG-inducible), purified using a standard method
